Source: patent US20230295293A1, “BINDING MOLECULES AGAINST FRa” (AstraZeneca AB, priority 2022, published 2023)
Substitutions are numbered along the chain they refer to.

B1: AB1370035 (hybridoma IgG) (antibody, V domains shown)
VH: QVQLQQSGPGLVKPSQTLSLTCAISGDSVSSNSAAWNWIRQSPSRGLEWLGRTYYRSNWYNDYTLSVKSRITVNPDTSKNQFSLQLNSVTPEDTAVYYCVRGVGRFDSWGQGTLVTVSS
VL: DIQMTQSPSTLSASVGDRVIITCRASQSISSWLAWYQQKPGKAPKLLIYKASSLESGVPSRFSGSGSGTEFTLTITSLQPDDFASYYCQEYKTYSIFTFGPGTKVDIK
B2: AB1370026 (hybridoma IgG) (antibody, V domains shown)
VH: EVQLVESGGGLVKPGGSLRLSCAASGFTFSSYAMSWVRQAPGKGLEWVSSISSGRSYIYYADSVKGRFTISRDNAKNSLYLKMNSLRDEDTAVYYCAREMQQLALDYWGQGTLVTVSS
VL: DIQMTQSPSSLSASVGDRVTITCRASQGISNFLAWFQQAPGKAPKSLIYAASSLQSGVPSKFSGSGSGTDFTLTISSLQPEDFATYYCQQYNSYPFTFGQGTKLEIK
B3: AB1370095 (hybridoma IgG) (antibody, V domains shown)
VH: EVQLVESGGGLVKPGGSLRLSCAASGFTFSSYSMNWVRQAPGKGLEWVSSISSRSSYVYYADSVKGRFTISRDNAKNSLYLQMNSLRAEDTAVYYCARGMTTLTFDYWGQGTLVTVSS
VL: B2 VL with N31S, A39K, F96L, Q100G, L104V
B4: AB1370083 (hybridoma IgG) (antibody, V domains shown)
VH: B3 VH with S33N, R54G, V58I, V64M, Y80F
VL: B2 VL with N31T, A39K, G68E, N92I, F96L, Q100G, L104V

The binders below were run against Human FRα ECD-Avi-His (human) (assay: HTRF antigen binding assay; hybridoma supernatant at 25%, 1 nM biotinylated antigen).
Sequence of Human FRα ECD-Avi-His (human) (chain, as listed by the source limits assumed): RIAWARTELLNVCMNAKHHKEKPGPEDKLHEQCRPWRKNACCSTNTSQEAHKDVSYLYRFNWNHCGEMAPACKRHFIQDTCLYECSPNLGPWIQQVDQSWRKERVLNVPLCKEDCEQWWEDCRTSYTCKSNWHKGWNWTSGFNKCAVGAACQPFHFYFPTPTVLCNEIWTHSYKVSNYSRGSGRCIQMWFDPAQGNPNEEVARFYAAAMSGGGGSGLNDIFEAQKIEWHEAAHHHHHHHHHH

| % Delta F [% Delta F] | Binder |
| --- | --- |
| 225 | B1 |
| 271 | B2 |
| 126 | B3 |
| 140 | B4 |

What follows are binders tested against Cyno FRα ECD-Avi-His (cynomolgus monkey) in the same assay as above.
Sequence of Cyno FRα ECD-Avi-His (cynomolgus monkey) (chain, as listed by the source limits assumed): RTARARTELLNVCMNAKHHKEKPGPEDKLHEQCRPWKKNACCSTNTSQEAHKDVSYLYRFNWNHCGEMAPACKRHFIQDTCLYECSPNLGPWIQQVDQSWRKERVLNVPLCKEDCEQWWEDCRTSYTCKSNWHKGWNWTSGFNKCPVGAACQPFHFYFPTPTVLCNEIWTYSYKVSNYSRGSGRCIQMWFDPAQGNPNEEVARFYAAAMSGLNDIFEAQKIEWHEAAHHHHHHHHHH

| % Delta F [% Delta F] | Binder |
| --- | --- |
| 141 | B1 |
| 214 | B2 |
| 85.3 | B3 |
| 85.2 | B4 |
